# Laboratory results as given in patent CN113372440A.
# What was measured:
# [1] = biological target: gLgH蛋白 (recombinant single-chain EBV M81 gL ectodomain - linker - gH ectodomain - 6xHis) (Epstein-Barr virus (M81 strain, KF373730.1)); test: ELISA, gLgH coated at 2 μg/mL, antibody titrated from 1 μg/mL (Fig. 2)
# [2] = biological target: gH/gL glycoprotein on EBV virions produced by AKATA cells (Epstein-Barr virus) (UniProt P03231); test: cell-based or functional assay
substance,measurement,setting,value
AMMO1 (针对EB病毒gLgH糖蛋白的人源中和单抗) (antibody),EC50,[1],0.0255 mg/L
same,"IC50 in the epithelial cell infection model (HNE1 cells, GFP-EBV, inhibition of GFP-positive cells)",[2],0.0828 mg/L
